# Patent US20030165986A1 (IMMUNEX, published 2003)
# B1: TACI-Fc (Fc fusion)
# chain: SGLGRSRRGGRSRVDQEERFPQGLWTGVAMRSCPEEQYWDPLLGTCMSCKTICNHQSQRTCAAFCRSLSCRKEQGKFYDHLLRDCISCASICGQHPKQCAYFCENKLRSPVNLPPELRRQRSGEVENNSDNSGRYQGLEHRGSEASPALPGLKLSADQVALVYST
# notes: also called HuTACI/Fc; Fc chimera; not shown: Fc portion of human IgG1, fused in-frame at the 3' end
# Target: T1, TACI ligand (TACI-L), expressed on transfected cells (Homo sapiens (Human), UniProt Q9Y275 1-285)
# T1 construct: cDNA of TACI-L transfected into cells on slides and into CV1 cells (flow cytometry); also called Neutrokine alpha; TL5
# Test: slide binding assay on cDNA-transfected cells
# Experimental: […] by adding 2 μg of the DNA encoding the members of the ligand family to a sterile tube and adding 75 μM choloroquine in transfection/growth medium to a final volume of 175 μl. 25 μl of DEAE-dextran (4 mg/ml in PBS) was then added to the DNA solution and mixed.
# The growth medium was aspirated from the slides and replaced with 3 ml of 75 μM chloroquine in the transfectionfgrowth medium, followed by the addition of the DNA/DEAE-dextran mixture to the cells. The slides were rocked side-to-side and back-and-forth to distribute the precipitated DNA evenly. The slides were incubated at 37° C. for 4.5 hours.
# To screen for positive pools expressing the cell-bound protein, slides were incubated with TACI:Fc and then with a radioiodinated protein probe (labeled goat anti-human Fc F(ab′)2) for 30 minutes at room temperature. The probe solution is then removed by aspiration and washed to remove the non-specifically bound probe. Finally, the slides were fixed by incubating each slide with 1 ml 2.5% glutaraldehyde in PBS for 30 minutes at room temperature to retain specifically bound label. The slides were then washed twice with 1 ml PBS and air-dried.
# T1 sequence (Q9Y275 whole entry): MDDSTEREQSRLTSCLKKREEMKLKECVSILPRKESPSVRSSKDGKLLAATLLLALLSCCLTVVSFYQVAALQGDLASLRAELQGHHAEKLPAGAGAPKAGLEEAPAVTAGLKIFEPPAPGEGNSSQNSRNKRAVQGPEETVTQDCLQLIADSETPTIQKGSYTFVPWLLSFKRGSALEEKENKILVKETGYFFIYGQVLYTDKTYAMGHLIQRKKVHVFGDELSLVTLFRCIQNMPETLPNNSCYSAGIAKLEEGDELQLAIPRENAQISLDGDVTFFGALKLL
binder,measurement,value
B1,binding result,binds
